Measured values reported in the supplement of paper PMC10065799, “High-throughput profiling of sequence recognition by tyrosine kinases and SH2 domains using bacterial peptide display” (eLife, 2023).

How the values were obtained:
c-Src SH2 = assay: SH2 binding enrichment of the phosphorylated peptide, bacterial display (enrichment ratio); higher = better substrate or ligand; peptides without Tyr show the background
Grb2 SH2 = Grb2 SH2 (UniProt P62993); assay: as above
SHP2-C SH2 = assay: as above
MERTK = MERTK (UniProt Q12866); assay: phosphorylation enrichment, bacterial display (enrichment ratio); higher = better substrate or ligand; peptides without Tyr show the background
EPHB2 = EPHB2 (UniProt P29323); assay: as above
FGFR3 = FGFR3 (UniProt P22607); assay: as above
AncSZ = assay: as above
Fyn = Fyn (UniProt P06241); assay: as above
Hck = Hck (UniProt P08631); assay: as above
Fes = Fes (UniProt P07332); assay: as above
EPHB1 = EPHB1 (UniProt P54762); assay: as above
c-Src = assay: as above
c-Abl (mouse) = assay: as above
Jak2 = Jak2 (UniProt O60674); assay: as above
Fer (mouse) = assay: as above
FGFR1 = FGFR1 (UniProt P11362); assay: as above
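For SH2 binding enrichment of the phosphorylated peptide, bacterial display in this document: peptide library displayed on the E. coli surface as eCPX fusions, selected cells deep-sequenced, score is each peptide's frequency after selection divided by its frequency in the input.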
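For phosphorylation enrichment, bacterial display in this document: 11-residue human phosphosite peptides and single-mutation variants displayed on the E. coli surface, counted by deep sequencing, each peptide's frequency after selection divided by its frequency in the unselected input library; frequency after pTyr selection over input frequency; kinase dosed for 20-30% of maximal phosphorylation in three min.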

Sequence of EPHB2 (P29323 whole entry, looked up): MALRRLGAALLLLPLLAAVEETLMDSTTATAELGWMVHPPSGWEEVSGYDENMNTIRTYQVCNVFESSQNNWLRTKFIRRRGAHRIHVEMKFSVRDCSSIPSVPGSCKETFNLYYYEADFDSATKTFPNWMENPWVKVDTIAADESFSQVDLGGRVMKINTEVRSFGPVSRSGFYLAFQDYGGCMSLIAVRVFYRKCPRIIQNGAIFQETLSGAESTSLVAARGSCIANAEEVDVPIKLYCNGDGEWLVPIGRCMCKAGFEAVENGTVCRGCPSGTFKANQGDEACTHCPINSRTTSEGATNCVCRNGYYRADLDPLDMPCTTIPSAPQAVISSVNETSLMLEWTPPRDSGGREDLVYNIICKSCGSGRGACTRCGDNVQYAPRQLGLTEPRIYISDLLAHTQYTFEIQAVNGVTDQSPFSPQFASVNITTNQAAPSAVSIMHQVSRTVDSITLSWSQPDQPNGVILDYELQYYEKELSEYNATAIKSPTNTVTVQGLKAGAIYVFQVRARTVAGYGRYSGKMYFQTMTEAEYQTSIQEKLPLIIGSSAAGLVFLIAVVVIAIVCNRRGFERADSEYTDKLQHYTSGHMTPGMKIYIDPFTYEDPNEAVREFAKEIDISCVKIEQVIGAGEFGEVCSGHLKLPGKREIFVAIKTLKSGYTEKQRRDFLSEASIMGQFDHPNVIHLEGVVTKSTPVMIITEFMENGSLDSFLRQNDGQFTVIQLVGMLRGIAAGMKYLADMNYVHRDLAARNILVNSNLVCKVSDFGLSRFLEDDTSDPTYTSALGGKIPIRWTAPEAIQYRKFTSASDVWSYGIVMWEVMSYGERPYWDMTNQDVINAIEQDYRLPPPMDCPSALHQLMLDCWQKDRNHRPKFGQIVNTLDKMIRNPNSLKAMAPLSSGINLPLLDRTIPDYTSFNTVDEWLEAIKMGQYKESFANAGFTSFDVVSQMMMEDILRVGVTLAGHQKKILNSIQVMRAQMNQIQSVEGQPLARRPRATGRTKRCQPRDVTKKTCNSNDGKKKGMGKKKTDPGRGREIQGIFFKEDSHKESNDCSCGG
Sequence of FGFR1 (P11362 whole entry, looked up, the tested form may be a part): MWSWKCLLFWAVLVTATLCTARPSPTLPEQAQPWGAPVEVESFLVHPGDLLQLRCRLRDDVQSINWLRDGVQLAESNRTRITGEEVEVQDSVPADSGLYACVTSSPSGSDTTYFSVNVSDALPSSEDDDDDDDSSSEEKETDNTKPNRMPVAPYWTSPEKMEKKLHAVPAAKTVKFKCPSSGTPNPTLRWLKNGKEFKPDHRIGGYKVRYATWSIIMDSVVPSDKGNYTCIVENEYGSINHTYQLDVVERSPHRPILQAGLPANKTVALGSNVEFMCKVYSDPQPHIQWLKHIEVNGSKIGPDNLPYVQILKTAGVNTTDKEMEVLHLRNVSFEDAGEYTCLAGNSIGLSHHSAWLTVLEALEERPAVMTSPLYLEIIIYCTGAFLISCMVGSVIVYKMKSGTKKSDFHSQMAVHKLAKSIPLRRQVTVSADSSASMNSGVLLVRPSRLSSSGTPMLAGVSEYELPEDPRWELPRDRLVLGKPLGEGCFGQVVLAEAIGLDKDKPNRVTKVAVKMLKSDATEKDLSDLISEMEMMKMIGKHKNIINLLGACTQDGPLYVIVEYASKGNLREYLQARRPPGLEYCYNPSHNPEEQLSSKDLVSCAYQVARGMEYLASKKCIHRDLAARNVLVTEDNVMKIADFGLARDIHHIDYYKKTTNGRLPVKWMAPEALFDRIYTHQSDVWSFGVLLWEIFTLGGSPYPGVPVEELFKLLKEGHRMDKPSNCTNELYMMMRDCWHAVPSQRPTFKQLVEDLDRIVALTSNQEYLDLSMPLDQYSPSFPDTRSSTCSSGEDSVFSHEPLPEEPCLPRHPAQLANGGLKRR
Sequence of Jak2 (O60674 whole entry, looked up): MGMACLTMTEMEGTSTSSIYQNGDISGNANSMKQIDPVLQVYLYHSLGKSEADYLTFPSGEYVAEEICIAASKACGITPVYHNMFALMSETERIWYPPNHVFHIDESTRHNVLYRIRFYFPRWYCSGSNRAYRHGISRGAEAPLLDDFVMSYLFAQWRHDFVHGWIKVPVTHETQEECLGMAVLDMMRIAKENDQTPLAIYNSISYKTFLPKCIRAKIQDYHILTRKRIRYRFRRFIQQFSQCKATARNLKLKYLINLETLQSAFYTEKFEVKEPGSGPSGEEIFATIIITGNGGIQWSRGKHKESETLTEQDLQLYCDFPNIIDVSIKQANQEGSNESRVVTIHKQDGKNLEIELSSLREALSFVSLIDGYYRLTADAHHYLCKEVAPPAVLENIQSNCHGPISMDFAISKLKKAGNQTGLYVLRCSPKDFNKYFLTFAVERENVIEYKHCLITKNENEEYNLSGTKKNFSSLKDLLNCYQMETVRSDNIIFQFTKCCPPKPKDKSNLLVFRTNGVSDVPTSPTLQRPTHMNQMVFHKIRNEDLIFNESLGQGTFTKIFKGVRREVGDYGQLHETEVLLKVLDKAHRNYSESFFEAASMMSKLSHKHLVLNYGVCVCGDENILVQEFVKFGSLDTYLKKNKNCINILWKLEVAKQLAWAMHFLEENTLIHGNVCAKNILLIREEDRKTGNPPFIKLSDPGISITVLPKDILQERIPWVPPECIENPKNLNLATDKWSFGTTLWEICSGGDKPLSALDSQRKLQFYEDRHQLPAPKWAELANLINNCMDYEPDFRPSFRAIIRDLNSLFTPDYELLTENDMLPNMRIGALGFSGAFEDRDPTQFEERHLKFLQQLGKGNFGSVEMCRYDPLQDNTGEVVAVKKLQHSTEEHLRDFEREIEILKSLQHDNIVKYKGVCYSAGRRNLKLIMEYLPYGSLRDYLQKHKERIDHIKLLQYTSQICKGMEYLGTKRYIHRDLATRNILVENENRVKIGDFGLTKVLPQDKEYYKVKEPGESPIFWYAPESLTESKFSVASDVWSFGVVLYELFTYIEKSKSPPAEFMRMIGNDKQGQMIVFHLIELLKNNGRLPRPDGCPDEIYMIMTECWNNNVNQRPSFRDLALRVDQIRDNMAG
Sequence of EPHB1 (P54762 whole entry, looked up): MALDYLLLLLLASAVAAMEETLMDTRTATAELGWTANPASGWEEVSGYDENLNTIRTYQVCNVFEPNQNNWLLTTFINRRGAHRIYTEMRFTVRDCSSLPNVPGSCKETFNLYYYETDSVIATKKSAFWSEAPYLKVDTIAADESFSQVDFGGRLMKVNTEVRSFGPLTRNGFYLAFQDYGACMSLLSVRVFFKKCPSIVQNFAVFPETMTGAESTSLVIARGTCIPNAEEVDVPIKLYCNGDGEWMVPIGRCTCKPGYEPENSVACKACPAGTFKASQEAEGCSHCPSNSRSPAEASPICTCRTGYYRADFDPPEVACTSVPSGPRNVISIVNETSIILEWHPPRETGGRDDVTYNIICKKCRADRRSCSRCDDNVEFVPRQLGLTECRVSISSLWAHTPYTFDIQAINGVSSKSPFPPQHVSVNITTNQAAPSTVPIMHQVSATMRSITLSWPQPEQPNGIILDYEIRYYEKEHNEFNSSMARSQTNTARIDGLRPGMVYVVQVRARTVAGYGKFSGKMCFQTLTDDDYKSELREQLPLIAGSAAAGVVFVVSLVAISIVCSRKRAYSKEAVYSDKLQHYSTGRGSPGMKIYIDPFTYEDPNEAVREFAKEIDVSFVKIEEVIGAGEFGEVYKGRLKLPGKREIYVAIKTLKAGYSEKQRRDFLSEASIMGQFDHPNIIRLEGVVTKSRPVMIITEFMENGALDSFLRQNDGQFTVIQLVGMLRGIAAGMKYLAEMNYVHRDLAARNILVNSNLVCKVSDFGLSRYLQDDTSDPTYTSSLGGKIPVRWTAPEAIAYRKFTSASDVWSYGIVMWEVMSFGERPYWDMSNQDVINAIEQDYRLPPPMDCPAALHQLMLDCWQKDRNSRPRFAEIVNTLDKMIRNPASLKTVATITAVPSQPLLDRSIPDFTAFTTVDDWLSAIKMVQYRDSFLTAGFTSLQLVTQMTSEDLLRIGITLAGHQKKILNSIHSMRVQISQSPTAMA
Sequence of Fyn (P06241 whole entry, looked up): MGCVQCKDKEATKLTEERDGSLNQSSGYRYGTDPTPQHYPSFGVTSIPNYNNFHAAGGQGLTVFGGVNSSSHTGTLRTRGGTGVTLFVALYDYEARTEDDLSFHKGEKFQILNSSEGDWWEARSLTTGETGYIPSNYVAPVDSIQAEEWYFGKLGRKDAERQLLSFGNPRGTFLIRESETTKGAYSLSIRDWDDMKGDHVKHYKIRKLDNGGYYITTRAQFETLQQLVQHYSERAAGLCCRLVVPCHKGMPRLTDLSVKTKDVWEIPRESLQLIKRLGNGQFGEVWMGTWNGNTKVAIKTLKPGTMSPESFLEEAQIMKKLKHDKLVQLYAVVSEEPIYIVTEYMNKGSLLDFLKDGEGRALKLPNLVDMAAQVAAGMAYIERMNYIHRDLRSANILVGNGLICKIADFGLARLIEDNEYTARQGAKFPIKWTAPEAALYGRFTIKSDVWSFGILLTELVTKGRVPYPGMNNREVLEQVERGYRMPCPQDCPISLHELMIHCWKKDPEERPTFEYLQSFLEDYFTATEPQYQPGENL
Sequence of Hck (P08631 whole entry, looked up): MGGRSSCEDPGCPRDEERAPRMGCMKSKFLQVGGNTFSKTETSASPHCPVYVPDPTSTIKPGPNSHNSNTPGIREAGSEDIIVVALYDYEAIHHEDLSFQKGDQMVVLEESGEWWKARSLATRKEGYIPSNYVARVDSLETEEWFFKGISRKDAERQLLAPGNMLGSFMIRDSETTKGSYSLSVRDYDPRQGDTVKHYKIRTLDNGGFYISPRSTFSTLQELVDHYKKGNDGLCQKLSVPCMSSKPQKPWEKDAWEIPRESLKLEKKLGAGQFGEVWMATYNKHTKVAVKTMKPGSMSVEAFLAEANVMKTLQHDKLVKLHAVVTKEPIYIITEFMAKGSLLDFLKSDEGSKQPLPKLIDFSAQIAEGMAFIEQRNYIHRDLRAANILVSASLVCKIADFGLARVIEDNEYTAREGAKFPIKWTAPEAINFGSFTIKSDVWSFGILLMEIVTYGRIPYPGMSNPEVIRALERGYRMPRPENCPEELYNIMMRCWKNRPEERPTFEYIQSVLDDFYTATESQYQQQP

Sequence | SH2 binding enrichment (c-Src SH2) | SH2 binding enrichment (Grb2 SH2) | SH2 binding enrichment (SHP2-C SH2) | phosphorylation enrichment (MERTK) | phosphorylation enrichment (EPHB2) | phosphorylation enrichment (FGFR3) | phosphorylation enrichment (AncSZ) | phosphorylation enrichment (Fyn) | phosphorylation enrichment (Hck) | phosphorylation enrichment (Fes) | phosphorylation enrichment (EPHB1) | phosphorylation enrichment (c-Src) | phosphorylation enrichment (c-Abl (mouse)) | phosphorylation enrichment (Jak2) | phosphorylation enrichment (Fer (mouse)) | phosphorylation enrichment (FGFR1)
DKATEYIQFVR [MAX_Y70_M74V_YF] | 0.459 | 0.789 | 0.73 | 0.41 | 0.53 | 0.551 | 0.74 | 0.442 | 0.636 | 0.705 | 0.503 | 0.556 | 0.574 | 0.55 | 0.465 | 0.519
FGYPGYQSKHY [TIMP3_Y177] | 0.511 | 0.895 | 0.751 | 0.435 | 0.465 | 0.546 | 0.592 | 0.516 | 0.414 | 0.8 | 0.512 | 0.534 | 0.496 | 0.607 | 0.443 | 0.349
CKSVHYDLVFL [COL22A1_Y37] | 0.986 | 0.775 | 0.613 | 1.56 | 0.739 | 0.866 | 1.24 | 0.554 | 0.632 | 1.38 | 0.806 | 0.528 | 0.93 | 1.19 | 9.46 | 0.532
QKMADYSNKLY [PDPR_Y104] | 0.447 | 0.776 | 0.604 | 0.535 | 0.455 | 0.735 | 0.61 | 0.515 | 0.692 | 0.717 | 0.492 | 0.509 | 0.555 | 0.579 | 0.435 | 0.436
EYITRYIDSLK [PSMA7_Y110_A112D] | 0.588 | 0.814 | 1.1 | 0.395 | 0.552 | 0.572 | 0.829 | 0.504 | 0.558 | 0.832 | 0.396 | 0.479 | 0.498 | 0.677 | 0.461 | 0.528
PDNEPYIFKVF [PIK3AP1_Y553] | 0.755 | 1.1 | 1 | 0.725 | 0.787 | 1.5 | 2.37 | 0.846 | 0.758 | 2.25 | 0.684 | 1.05 | 1.19 | 2.79 | 0.647 | 1.16
SSPVLYLSPET [TJP1_Y931_P930L] | 0.442 | 0.882 | 0.901 | 0.782 | 0.815 | 0.713 | 1.21 | 0.534 | 0.626 | 0.833 | 1.14 | 0.469 | 1.61 | 1.02 | 0.459 | 0.663
IVEYAYNDKAV [PUM3_Y259_I264V] | 0.719 | 0.927 | 0.881 | 0.5 | 0.418 | 0.673 | 0.989 | 0.418 | 0.42 | 1.1 | 0.669 | 0.492 | 1.01 | 1 | 0.455 | 0.52
